Experimental findings from US12099068B2, “Biomarkers for graft-versus-host disease” (Incyte Corporation, priority 2018, dated 2024) are described below.

B1: SERPINA12 (protein, UniProt Q8IW75 21-414, looked up)
Serpin A12: LKPSFSPRNYKALSEVQGWKQRMAAKELARQNMDLGFKLLKKLAFYNPGRNIFLSPLSISTAFSMLCLGAQDSTLDEIKQGFNFRKMPEKDLHEGFHYIIHELTQKTQDLKLSIGNTLFIDQRLQPQRKFLEDAKNFYSAETILTNFQNLEMAQKQINDFISQKTHGKINNLIENIDPGTVMLLANYIFFRARWKHEFDPNVTKEEDFFLEKNSSVKVPMMFRSGIYQVGYDDKLSCTILEIPYQKNITAIFILPDEGKLKHLEKGLQVDTFSRWKTLLSRRVVDVSVPRLHMTGTFDLKKTLSYIGVSKIFEEHGDLTKIAPHRSLKVGEAVHKAELKMDERGTEGAAGTGAQTLPMETPLVVKIDKPYLLLIYSEKIPSVLFLGKIVNPIGK
B2: CD244 (protein, UniProt Q9BZW8 22-370, looked up)
Natural killer cell receptor …: CQGSADHVVSISGVPLQLQPNSIQTKVDSIAWKKLLPSQNGFHHILKWENGSLPSNTSNDRFSFIVKNLSLLIKAAQQQDSGLYCLEVTSISGKVQTATFQVFVFESLLPDKVEKPRLQGQGKILDRGRCQVALSCLVSRDGNVSYAWYRGSKLIQTAGNLTYLDEEVDINGTHTYTCNVSNPVSWESHTLNLTQDCQNAHQEFRFWPFLVIIVILSALFLGTLACFCVWRRKRKEKQSETSPKEFLTIYEDVKDLKTRRNHEQEQTFPGGGSTIYSMIQSQSSAPTSQEPAYTLYSLIQPSRKSGSRKRNHSPSFNSTIYEVIGKSQPKAQNPARLSRKELENFDVYS
B3: CD48 (protein, UniProt P09326 27-220, looked up)
CD48 antigen: QGHLVHMTVVSGSNVTLNISESLPENYKQLTWFYTFDQKIVEWDSRKSKYFESKFKGRVRLDPQSGALYISKVQKEDNSTYIMRVLKKTGNEQEWKIKLQVLDPVPKPVIKIEKIEDMDDNCYLKLSCVIPGESVNYTWYGDKRPFPKELQNSVLETTLMPHNYSRCYTCQVSNSVSSKNGTVCLSPPCTLARS
B4: PRKRA (protein, UniProt O75569 1-313, looked up)
Interferon-inducible …: MSQSRHRAEAPPLEREDSGTFSLGKMITAKPGKTPIQVLHEYGMKTKNIPVYECERSDVQIHVPTFTFRVTVGDITCTGEGTSKKLAKHRAAEAAINILKANASICFAVPDPLMPDPSKQPKNQLNPIGSLQELAIHHGWRLPEYTLSQEGGPAHKREYTTICRLESFMETGKGASKKQAKRNAAEKFLAKFSNISPENHISLTNVVGHSLGCTWHSLRNSPGEKINLLKRSLLSIPNTDYIQLLSEIAKEQGFNITYLDIDELSANGQYQCLAELSTSPITVCHGSGISCGNAQSDAAHNALQYLKIIAERK
B5: B4GAT1 (protein, UniProt O43505 1-415, looked up)
Beta-1,4-glucuronyltransferase …: MQMSYAIRCAFYQLLLAALMLVAMLQLLYLSLLSGLHGQEEQDQYFEFFPPSPRSVDQVKAQLRTALASGGVLDASGDYRVYRGLLKTTMDPNDVILATHASVDNLLHLSGLLERWEGPLSVSVFAATKEEAQLATVLAYALSSHCPDMRARVAMHLVCPSRYEAAVPDPREPGEFALLRSCQEVFDKLARVAQPGINYALGTNVSYPNNLLRNLAREGANYALVIDVDMVPSEGLWRGLREMLDQSNQWGGTALVVPAFEIRRARRMPMNKNELVQLYQVGEVRPFYYGLCTPCQAPTNYSRWVNLPEESLLRPAYVVPWQDPWEPFYVAGGKVPTFDERFRQYGFNRISQACELHVAGFDFEVLNEGFLVHKGFKEALKFHPQKEAENQHNKILYRQFKQELKAKYPNSPRRC
B6: ANGPTL3 (protein, UniProt Q9Y5C1 17-460, looked up)
Angiopoietin-related protein 3: SRIDQDNSSFDSLSPEPKSRFAMLDDVKILANGLLQLGHGLKDFVHKTKGQINDIFQKLNIFDQSFYDLSLQTSEIKEEEKELRRTTYKLQVKNEEVKNMSLELNSKLESLLEEKILLQQKVKYLEEQLTNLIQNQPETPEHPEVTSLKTFVEKQDNSIKDLLQTVEDQYKQLNQQHSQIKEIENQLRRTSIQEPTEISLSSKPRAPRTTPFLQLNEIRNVKHDGIPAECTTIYNRGEHTSGMYAIRPSNSQVFHVYCDVISGSPWTLIQHRIDGSQNFNETWENYKYGFGRLDGEFWLGLEKIYSIVKQSNYVLRIELEDWKDNKHYIEYSFYLGNHETNYTLHLVAITGNVPNAIPENKDLVFSTWDHKAKGHFNCPEGYSGGWWWHDECGENNLNGKYNKPRAKSKPERRRGLSWKSQNGRLYSIKSTKMLIHPTDSESFE
B7: ITGB1BP2 (protein, UniProt Q9UKP3 1-347, looked up)
Integrin beta-1-binding …: MSLLCRNKGCGQHFDPNTNLPDSCCHHPGVPIFHDALKGWSCCRKRTVDFSEFLNIKGCTMGPHCAEKLPEAPQPEGPATSSSLQEQKPLNVIPKSAETLRRERPKSELPLKLLPLNISQALEMALEQKELDQEPGAGLDSLIRTGSSCQNPGCDAVYQGPESDATPCTYHPGAPRFHEGMKSWSCCGIQTLDFGAFLAQPGCRVGRHDWGKQLPASCRHDWHQTDSLVVVTVYGQIPLPAFNWVKASQTELHVHIVFDGNRVFQAQMKLWGVINVEQSSVFLMPSRVEISLVKADPGSWAQLEHPDALAKKARAGVVLEMDEEESDDSDDDLSWTEEEEEEEAMGE
B8: ICAM3 (protein, UniProt P32942 30-547, looked up)
Intercellular adhesion …: QEFLLRVEPQNPVLSAGGSLFVNCSTDCPSSEKIALETSLSKELVASGMGWAAFNLSNVTGNSRILCSVYCNGSQITGSSNITVYRLPERVELAPLPPWQPVGQNFTLRCQVEDGSPRTSLTVVLLRWEEELSRQPAVEEPAEVTATVLASRDDHGAPFSCRTELDMQPQGLGLFVNTSAPRQLRTFVLPVTPPRLVAPRFLEVETSWPVDCTLDGLFPASEAQVYLALGDQMLNATVMNHGDTLTATATATARADQEGAREIVCNVTLGGERREARENLTVFSFLGPIVNLSEPTAHEGSTVTVSCMAGARVQVTLDGVPAAAPGQPAQLQLNATESDDGRSFFCSATLEVDGEFLHRNSSVQLRVLYGPKIDRATCPQHLKWKDKTRHVLQCQARGNPYPELRCLKEGSSREVPVGIPFFVNVTHNGTYQCQASSSRGKYTLVVVMDIEAGSSHFVPVFVAVLLTLGVVTIVLALMYVFREHQRSGSYHVREESTYLPLTSMQPTEAMGEEPSRAE
B9: HCLS1 (protein, UniProt P14317 1-486, looked up)
Hematopoietic lineage …: MWKSVVGHDVSVSVETQGDDWDTDPDFVNDISEKEQRWGAKTIEGSGRTEHINIHQLRNKVSEEHDVLRKKEMESGPKASHGYGGRFGVERDRMDKSAVGHEYVAEVEKHSSQTDAAKGFGGKYGVERDRADKSAVGFDYKGEVEKHTSQKDYSRGFGGRYGVEKDKWDKAALGYDYKGETEKHESQRDYAKGFGGQYGIQKDRVDKSAVGFNEMEAPTTAYKKTTPIEAASSGTRGLKAKFESMAEEKRKREEEEKAQQVARRQQERKAVTKRSPEAPQPVIAMEEPAVPAPLPKKISSEAWPPVGTPPSSESEPVRTSREHPVPLLPIRQTLPEDNEEPPALPPRTLEGLQVEEEPVYEAEPEPEPEPEPEPENDYEDVEEMDRHEQEDEPEGDYEEVLEPEDSSFSSALAGSSGCPAGAGAGAVALGISAVAVYDYQGEGSDELSFDPDDVITDIEMVDEGWWRGRCHGHFGLFPANYVKLLE
B10: SOST (protein, UniProt Q9BQB4 24-213, looked up)
Sclerostin: QGWQAFKNDATEIIPELGEYPEPPPELENNKTMNRAENGGRPPHHPFETKDVSEYSCRELHFTRYVTDGPCRSAKPVTELVCSGQCGPARLLPNAIGRGKWWRPSGPDFRCIPDRYRAQRVQLLCPGGEAPRARKVRLVASCKCKRLTRFHNQSELKDFGTEAARPQKGRKPRPRARSAKANQAELENAY
B11: PODXL (protein, UniProt O00592 23-558, looked up)
Podocalyxin: SPSPSPSPSQNATQTTTDSSNKTAPTPASSVTIMATDTAQQSTVPTSKANEILASVKATTLGVSSDSPGTTTLAQQVSGPVNTTVARGGGSGNPTTTIESPKSTKSADTTTVATSTATAKPNTTSSQNGAEDTTNSGGKSSHSVTTDLTSTKAEHLTTPHPTSPLSPRQPTSTHPVATPTSSGHDHLMKISSSSSTVAIPGYTFTSPGMTTTLLETVFHHVSQAGLELLTSGDLPTLASQSAGITASSVISQRTQQTSSQMPASSTAPSSQETVQPTSPATALRTPTLPETMSSSPTAASTTHRYPKTPSPTVAHESNWAKCEDLETQTQSEKQLVLNLTGNTLCAGGASDEKLISLICRAVKATFNPAQDKCGIRLASVPGSQTVVVKEITIHTKLPAKDVYERLKDKWDELKEAGVSDMKLGDQGPPEEAEDRFSMPLIITIVCMASFLLLVAALYGCCHQRLSQRKDQQRLTEELQTVENGYHDNPTLEVMETSSEMQEKKVVSLNGELGDSWIVPLDNLTKDDLDEEEDTHL
B12: MPO (protein, UniProt P05164 165-745, looked up)
Myeloperoxidase: VTCPEQDKYRTITGMCNNRRSPTLGASNRAFVRWLPAEYEDGFSLPYGWTPGVKRNGFPVALARAVSNEIVRFPTDQLTPDQERSLMFMQWGQLLDHDLDFTPEPAARASFVTGVNCETSCVQQPPCFPLKIPPNDPRIKNQADCIPFFRSCPACPGSNITIRNQINALTSFVDASMVYGSEEPLARNLRNMSNQLGLLAVNQRFQDNGRALLPFDNLHDDPCLLTNRSARIPCFLAGDTRSSEMPELTSMHTLLLREHNRLATELKSLNPRWDGERLYQEARKIVGAMVQIITYRDYLPLVLGPTAMRKYLPTYRSYNDSVDPRIANVFTNAFRYGHTLIQPFMFRLDNRYQPMEPNPRVPLSRVFFASWRVVLEGGIDPILRGLMATPAKLNRQNQIAVDEIRERLFEQVMRIGLDLPALNMQRSRDHGLPGYNAWRRFCGLPQPETVGQLGTVLRNLKLARKLMEQYGTPNNIDIWMGGVSEPLKRKGRVGPLLACIIGTQFRKLRDGDRFWWENEGVFSMQQRQALAQISLPRIICDNTGITTVSKNNIFMSNSYPRDFVNCSTLPALNLASWREAS
B13: SIT1 (protein, UniProt Q9Y3P8 25-196, looked up)
Signaling …: DNCTDLLALGIPSITQAWGLWVLLGAVTLLFLISLAAHLSQWTRGRSRSHPGQGRSGESVEEVPLYGNLHYLQTGRLSQDPEPDQQDPTLGGPARAAEEVMCYTSLQLRPPQGRIPGPGTPVKYSEVVLDSEPKSQASGPEPELYASVCAQTRRARASFPDQAYANSQPAAS

In the experiment the test system is plasma proteins. Description: Plasma proteins modulated between baseline and day 28 in responders (CR, VGPR, PR; n = 19), Example 6 (Table 13). The class given is in vivo, human. The following applies: plasma protein (OLINK NPX); responders (CR, VGPR, PR; n = 19); itacitinib 200 mg or 300 mg QD with corticosteroids; day 28 vs baseline. The essentials:
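Plasma at baseline/screening and day 28 profiled for >1000 proteins by OLINK proximity extension assay, reported as NPX (log2). Steroid-naive and steroid-refractory patients pooled. Paired and unpaired t tests, ANOVA and Pearson correlation applied; significance at P<0.05.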
Take B1: the “Fold Change, Increased Expression from Baseline to Day 28” value (“Fold Change, Increased Expression” for short) is listed as 1.567. For the molecule B2, the “Fold Change, Decreased Expression from Baseline to Day 28” value (“Fold Change, Decreased Expression” for short) was −1.5176. For the molecule B3, the “Fold Change, Decreased Expression” value is on record as −1.6022. The same measure, in the same setting: for B4 the value was −1.2761.

On to B5, for which the “Fold Change, Increased Expression” value is on record as 1.2795. B6: the “Fold Change, Increased Expression” value stood at 1.2673. As to B7, the “Fold Change, Decreased Expression” value is reported as −1.8787.

For B8, the “Fold Change, Decreased Expression” value is given as −1.464.

For the molecule B9, the “Fold Change, Decreased Expression” value is recorded as −1.455.

Regarding B10, the “Fold Change, Decreased Expression” value is on record as −1.3214. Regarding B11, the “Fold Change, Increased Expression” value amounted to 1.2014.

Take B12: the “Fold Change, Decreased Expression” value is −1.8431.

For B13, the “Fold Change, Decreased Expression” value is listed as −1.5501.
